# Changes are numbered by the printed parent chain.
# T1: factor VIIIa A1/A3C1C2 dimer, Y1792F (human, UniProt P00451 20-391; P00451 1709-2351)
# T1 sequence 1: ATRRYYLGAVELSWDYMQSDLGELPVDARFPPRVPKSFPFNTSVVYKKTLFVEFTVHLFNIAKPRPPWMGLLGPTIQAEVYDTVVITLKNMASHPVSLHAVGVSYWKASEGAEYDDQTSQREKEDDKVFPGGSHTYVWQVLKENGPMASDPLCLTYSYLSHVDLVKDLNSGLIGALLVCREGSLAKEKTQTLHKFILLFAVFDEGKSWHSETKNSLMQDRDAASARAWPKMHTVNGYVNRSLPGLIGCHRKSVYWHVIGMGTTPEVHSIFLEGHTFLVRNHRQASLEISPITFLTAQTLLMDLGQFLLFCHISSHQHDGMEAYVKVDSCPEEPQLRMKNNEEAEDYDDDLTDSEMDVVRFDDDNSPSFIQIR
# T1 sequence 2: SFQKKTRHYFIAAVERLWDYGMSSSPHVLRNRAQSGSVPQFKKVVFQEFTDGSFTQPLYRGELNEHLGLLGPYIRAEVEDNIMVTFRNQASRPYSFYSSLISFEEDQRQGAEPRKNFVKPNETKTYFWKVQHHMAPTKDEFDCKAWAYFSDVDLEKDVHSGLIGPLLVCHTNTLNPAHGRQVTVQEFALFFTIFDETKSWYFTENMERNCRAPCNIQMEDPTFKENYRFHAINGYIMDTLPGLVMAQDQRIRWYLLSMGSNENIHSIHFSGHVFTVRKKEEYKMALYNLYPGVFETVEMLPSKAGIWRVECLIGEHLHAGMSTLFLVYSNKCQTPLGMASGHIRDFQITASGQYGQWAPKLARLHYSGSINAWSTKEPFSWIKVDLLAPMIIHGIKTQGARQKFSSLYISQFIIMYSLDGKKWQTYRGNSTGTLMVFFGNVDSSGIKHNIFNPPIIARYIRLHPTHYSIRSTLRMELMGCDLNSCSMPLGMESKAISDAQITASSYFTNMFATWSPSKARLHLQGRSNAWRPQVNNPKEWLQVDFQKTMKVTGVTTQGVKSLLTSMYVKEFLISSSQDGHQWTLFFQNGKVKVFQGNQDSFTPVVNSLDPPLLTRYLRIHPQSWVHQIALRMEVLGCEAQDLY
# T2: factor VIIIa A1/A3C1C2 dimer, D27A (human, UniProt P00451 20-391; P00451 1709-2351)
# T2 chain 1: T1 sequence 1 with D27A
# T2 chain 2: T1 sequence 2 with F103Y
# T3: factor VIIIa A1/A3C1C2 dimer, wild type (human, UniProt P00451 20-391; P00451 1709-2351)
# T3 sequence 1: T1 sequence 1
# T3 sequence 2: T1 sequence 2 with F103Y
# T4: factor VIIIa A1/A3C1C2 dimer, Glu1984Val (human, UniProt P00451 20-391; P00451 1709-2351)
# T4 sequence 1: T1 sequence 1
# T4 sequence 2: T1 sequence 2 with F103Y, E295V
# B1: factor VIIIa A2 subunit, wild type (other)
# chain: SVAKKHPKTWVHYIAAEEEDWDYAPLVLAPDDRSYKSQYLNNGPQRIGRKYKKVRFMAYTDETFKTREAIQHESGILGPLLYGEVGDTLLIIFKNQASRPYNIYPHGITDVRPLYSRRLPKGVKHLKDFPILPGEIFKYKWTVTVEDGPTKSDPRCLTRYYSSFVNMERDLASGLIGPLLICYKESVDQRGNQIMSDKRNVILFSVFDENRSWYLTENIQRFLPNPAGVQLEDPEFQASNIMHSINGYVFDSLQLSVCLHEVAYWYILSIGAQTDFLSVFFSGYTFKHKMVYEDTLTLFPFSGETVFMSMENPGLWILGCHNSDFRNRGMTALLKVSSCDKNTGDYYEDSYEDISAYLLSKNNAIEPR
# How the values were obtained:
# Experiment in all cases: cell-based or functional assay
# [1] = target: T1, factor VIIIa A1/A3C1C2 dimer, Y1792F
# [2] = target: T2, factor VIIIa A1/A3C1C2 dimer, D27A
# [3] = target: T3, factor VIIIa A1/A3C1C2 dimer, wild type
# [4] = target: T4, factor VIIIa A1/A3C1C2 dimer, Glu1984Val
binder,measurement,setting,value
B1,"Factor VIIIa decay rate relative to wild type, FIXa (+)",[1],38.4 relative to wild type
same,"Factor VIIIa decay rate relative to wild type, FIXa (-)",[1],11.5 relative to wild type
same,"Factor VIIIa decay rate, FIXa (+)",[1],0.433 min⁻¹
same,"Factor VIIIa decay rate, FIXa (-)",[1],0.724 min⁻¹
same,"Factor VIIIa decay rate relative to wild type, FIXa (+)",[2],0.79 relative to wild type
same,"Factor VIIIa decay rate, FIXa (+)",[2],0.0089 min⁻¹
same,"Factor VIIIa Decay relative to the WT value, Factor IXa absent",[3],1 relative to WT
same,"Factor VIIIa Decay relative to the WT value, Factor IXa present",[3],1 relative to WT
same,"Factor VIIIa Decay, Factor IXa absent",[3],0.0836 min⁻¹
same,"Factor VIIIa Decay, Factor IXa present",[3],0.0154 min⁻¹
same,"Factor VIIIa Decay relative to the WT value, Factor IXa absent",[4],0.26 relative to WT
same,"Factor VIIIa Decay relative to the WT value, Factor IXa present",[4],0.13 relative to WT
same,"Factor VIIIa Decay, Factor IXa absent",[4],0.0217 min⁻¹
same,"Factor VIIIa Decay, Factor IXa present",[4],0.0019 min⁻¹

# — patent publication US20090118184A1 (UNIVERSITY OF ROCHESTER, published 2009)
